# Laboratory results from patent US11110182B2, “Multifunctional RNA nanoparticles and methods for treating cancer and therapeutic resistant cancer” (University of Cincinnati, priority 2016, dated 2021).
# B1: pRNA-HER2apt-siMED1: 3-WJ pRNA nanoparticle bearing a HER2-targeting RNA aptamer and two different MED1 siRNAs; strands p1 SEQ ID NO: 3, p2 SEQ ID NO: 4 (nucleic acid)
# chain 1: GGACAGUGAAAGUGAGUCAAAGGAUCAAUCAUGGCCAAAGAUGUUACUUUGAGAGCCUU
# chain 2: GGCUCUCAAAGUAACAUCUAAGGCCAUGUGUAUGUGGGGGGAGGACGAUGCGGUCUGCUGUGCUUGAUAUGCCCCAGACGACUCGCCCCCCACAUACUUUGUUGAUCCAAUGACUCACUUUCACUGUCCUU
# modifications: 2'-F modification; third strand may lack entry; pRNA-HER2apt-siMED1, p1; pRNA-HER2apt-siMED1, p2
# Experiment: Hydrodynamic size by dynamic light scattering (DLS)
# Format: physicochemical
# Method: Cell culture. Human breast cancer luciferase-overexpressing BT474 and MDA-MB-231 cells were maintained in DMEM medium (Hyclone, Thermo Scientific) supplemented with 10% fetal bovine serum (FBS, Sigma) and 1% penicillin/streptomycin (Corning) at 37° C. in a humidified atmosphere with 5% CO2.^53 • Generation of pRNA nanoparticles. The two strands of pRNA were synthesized with the DNA templates, which were amplified with overlapping primers (Sigma) by PCR methods, using a T7 promoter-controlled in vitro RNA transcription system as previously described^33 (Table 1). […] The hydrodynamic diameter and Tm value of pRNA nanoparticles were determined using dynamic light scattering and TGGE assay, respectively, as previously described.^54 The AFM imaging of the pRNA nanoparticles was performed at the University of Nebraska Medical Center imaging facility as previously reported.^55 Briefly, the pRNA nanoparticles (5 μL) were deposited on APS modified mica ^56 for a total of 2 min of incubation time. […] After washing three times with PBS, the cellular uptake of pRNAs was determined using a BD LSRFortessa™ flow cytometer. • Real-time PCR. […] The expression of MED 1, TFF1, c-Myc, cyclinD1 and MMP-9 was analyzed using GAPDH as the internal reference. • Western blot analyses. […]
molecule,measurement,value
B1,hydrodynamic size,8.68±1.87 nm
